This data set relates to Saccharomyces cerevisiae. Kind of data set: protein stability index of tFT-peptide fusion (C-terminal peptide) (PSI (0-1 scale)); higher = more stable (slower turnover). The settings on record: temperature: 30 C. How it is done:
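MPS profiling in S. cerevisiae of the yeast C-terminome library: the last 12 aa of each annotated ORF are fused to the C-terminus of a sfGFP-mCherry timer, after a GGGS linker. Cells are FACS-sorted into 8 mCherry/sfGFP bins and deep-sequenced. PSI runs from 0 (unstable) to 1 (stable); wild type and das1Δ backgrounds, two technical replicates each.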

Setting [1] is: genetic background: das1 deletion.

± gives the standard deviation of the averaged measurements.

With LNDLSNVRHSKT [HER1 C-terminal 12 aa], the protein stability index stood at 0.6893 ± 0.0035 under setting [1] and 0.675 ± 0.022 (genetic background: wild type).
For LNNLSMERSIRL [GIP3 C-terminal 12 aa], the protein stability index was 0.715 ± 0.015 under setting [1] and 0.666 ± 0.014 (genetic background: wild type).
The matching figures for LNRKWYTRFFFP [MNN10 C-terminal 12 aa]: 0.732 ± 0.012 and 0.702 ± 0.035.
As for LPIWDPMGALAK [LAP3 C-terminal 12 aa], the protein stability index worked out at 0.703 ± 0.0072 under setting [1] and 0.739 ± 0.06 (genetic background: wild type).
For LPKPAGWQNHIG [KTR1 C-terminal 12 aa] the same measures were 0.7014 ± 0.0053 and 0.68 ± 0.009.
For LPNTISSETFLK [SCEI C-terminal 12 aa] the same measures were 0.661 ± 0.0076 and 0.702 ± 0.018.
LPQSTLQENQLS [SKN7 C-terminal 12 aa]: the protein stability index runs as follows: under setting [1], 0.706 ± 0.024; (genetic background: wild type) 0.622 ± 0.028.
Turning to LQVSQEFTTKTQ [NUP82 C-terminal 12 aa], the protein stability index by setting is: under setting [1], 0.676 ± 0.034; (genetic background: wild type) 0.709 ± 0.048.
On to LRIVACNSKKSE [TOA2 C-terminal 12 aa], for which the protein stability index was determined as 0.673 ± 0.027 under setting [1] and 0.649 ± 0.022 (genetic background: wild type).
The matching figures for LRSCDLKRKSKK [YLR302C C-terminal 12 aa]: 0.678 ± 0.037 and 0.68 ± 0.028.
For LSDLHIKEAKID [OGG1 C-terminal 12 aa] the same measures were 0.7101 ± 0.0056 and 0.568 ± 0.021.
For LSDLRAWTLKVA [YDR491C C-terminal 12 aa] the same measures were 0.7058 ± 0.0027 and 0.329 ± 0.0064.
For LSDYLSHDFASC [YNL040W C-terminal 12 aa], the protein stability index is 0.688 ± 0.011 under setting [1] and 0.694 ± 0.04 (genetic background: wild type).
The matching figures for LSFFGILKYCFL [TSC3 C-terminal 12 aa]: 0.6491 ± 0.0031 and 0.618 ± 0.027.
With LSIAAGVGFALV [GAS1 C-terminal 12 aa], the protein stability index stood at 0.657 ± 0.007 under setting [1] and 0.653 ± 0.0083 (genetic background: wild type).
For “LSKKTSGTHTTH [YBR182C-A C-terminal 12 aa]” the same measures were 0.681 ± 0.015 and 0.6949 ± 0.005.
As to LSQRAWATKKPI [YJL028W C-terminal 12 aa], the protein stability index is, setting by setting: under setting [1], 0.696 ± 0.012; (genetic background: wild type) 0.732 ± 0.077.
With LSRYTRVLLMFM [YBR178W C-terminal 12 aa], the protein stability index was 0.632 ± 0.02 under setting [1] and 0.455 ± 0.014 (genetic background: wild type).
The matching figures for LSSVKVRQLRNM [RBH2 C-terminal 12 aa]: 0.681 ± 0.021 and 0.205 ± 0.0043.
For LSTWDARTPILD [GPI2 C-terminal 12 aa] the same measures were 0.705 ± 0.0016 and 0.703 ± 0.0087.
The matching figures for LTALLETVNKYR [GCG1 C-terminal 12 aa]: 0.7 ± 0.016 and 0.682 ± 0.014.
On to LTTISLYLMLKL [YGL262W C-terminal 12 aa], for which the protein stability index under setting [1] worked out at 0.382 ± 0.021 and the protein stability index (genetic background: wild type) turned out to be 0.351 ± 0.0079.
Take LVAIDPRSEAYC [YMR324C C-terminal 12 aa]: the protein stability index worked out at 0.68838 ± 0.00058 under setting [1] and 0.671 ± 0.012 (genetic background: wild type).
Regarding LVKHTYKRSSSS [VBA1 C-terminal 12 aa], the protein stability index is, setting by setting: under setting [1], 0.705 ± 0.029; (genetic background: wild type) 0.656 ± 0.019.
Consider “LVSNSDTNIVWP [YMR247W-A C-terminal 12 aa]”, for which the protein stability index is, setting by setting: under setting [1], 0.68696 ± 0.00059; (genetic background: wild type) 0.712 ± 0.015.
The matching figures for LVSQRITGPGVF [ASI2 C-terminal 12 aa]: 0.687 ± 0.0099 and 0.681 ± 0.0099.
On to “LWVTLLPEFTNF [YBR121C-A C-terminal 12 aa]”, for which the protein stability index under setting [1] came out at 0.768 ± 0.018 and the protein stability index (genetic background: wild type) was 0.75 ± 0.029.
In the case of LYFLVKSFLSIV [HMX1 C-terminal 12 aa], the protein stability index under setting [1] stood at 0.668 ± 0.14 and the protein stability index (genetic background: wild type) was determined as 0.282 ± 0.12.
On to MEDEDMVDVIID [ESC2 C-terminal 12 aa], for which the protein stability index runs as follows: under setting [1], 0.689 ± 0.02; (genetic background: wild type) 0.7232 ± 0.0017.
Regarding MGVVAAVGVALL [ECM33 C-terminal 12 aa], the protein stability index reads like this: under setting [1], 0.678 ± 0.019; (genetic background: wild type) 0.642 ± 0.0081.
The matching figures for MHSNFQNLFNLK [CLB5 C-terminal 12 aa]: 0.708 ± 0.026 and 0.707 ± 0.026.
The matching figures for MKSKKIDIKGQK [THP3 C-terminal 12 aa]: 0.705 ± 0.03 and 0.665 ± 0.018.
On to “MSLRKYVSVCSM [YHL006W-A C-terminal 12 aa]”, for which the protein stability index came out at 0.5 ± 0.012 under setting [1] and 0.513 ± 0.0063 (genetic background: wild type).
The matching figures for “MVTNDGFGSTVL [YLR379W-A C-terminal 12 aa]”: 0.698 ± 0.013 and 0.734 ± 0.029.
The matching figures for NDDDEDDDDFFD [SDD2 C-terminal 12 aa]: 0.723 ± 0.015 and 0.6947 ± 0.0056.
For NDLITYLKKACE [CYC1 C-terminal 12 aa] the same measures were 0.68 ± 0.01 and 0.683 ± 0.011.
Consider NDSDGTILIPDI [ZDS2 C-terminal 12 aa], for which the protein stability index amounted to 0.6982 ± 0.0057 under setting [1] and 0.713 ± 0.041 (genetic background: wild type).
For NDSEPESEYQQE [CUB1 C-terminal 12 aa] the same measures were 0.6922 ± 0.0057 and 0.713 ± 0.0081.
The matching figures for NEERINSKIFKS [RCF2 C-terminal 12 aa]: 0.716 ± 0.043 and 0.69629 ± 0.00022.
The matching figures for NENDFNFINWEG [FLO8 C-terminal 12 aa]: 0.741 ± 0.037 and 0.7071 ± 0.0051.
In the case of NENLSNELQPSL [AME1 C-terminal 12 aa], the protein stability index runs as follows: under setting [1], 0.678 ± 0.009; (genetic background: wild type) 0.759 ± 0.072.
For the sequence NEQFDHKFDETL [APL4 C-terminal 12 aa], the protein stability index amounted to 0.726 ± 0.015 under setting [1] and 0.671 ± 0.01 (genetic background: wild type).
Consider NFEKPCLIQDGK [FMP48 C-terminal 12 aa], for which the protein stability index is, setting by setting: under setting [1], 0.717 ± 0.051; (genetic background: wild type) 0.706 ± 0.033.
Consider NFTIHRPLNNGR [YDL062W C-terminal 12 aa], for which the protein stability index runs as follows: under setting [1], 0.731 ± 0.044; (genetic background: wild type) 0.734 ± 0.027.
NFTTNEYFIHTS [YNL226W C-terminal 12 aa]: the protein stability index by setting is: under setting [1], 0.7352 ± 0.0013; (genetic background: wild type) 0.737 ± 0.018.
For NGEIMTCWEWKE [HEH2 C-terminal 12 aa] the same measures were 0.691 ± 0.034 and 0.686 ± 0.019.
The matching figures for NGINNSSATYKI [ULA1 C-terminal 12 aa]: 0.7027 ± 0.0063 and 0.71 ± 0.038.
The matching figures for NGLWEQEKTEKR [YKR041W C-terminal 12 aa]: 0.716 ± 0.025 and 0.733 ± 0.061.
As to NGNNVASLNTKK [TAF12 C-terminal 12 aa], the protein stability index is, setting by setting: under setting [1], 0.6865 ± 0.0016; (genetic background: wild type) 0.664 ± 0.011.
In the case of NGYFGYAPGHYP [OPT2 C-terminal 12 aa], the protein stability index is 0.6844 ± 0.0056 under setting [1] and 0.708 ± 0.031 (genetic background: wild type).
For NILPMTYLLKKK [DPI34 C-terminal 12 aa], the protein stability index runs as follows: under setting [1], 0.697 ± 0.049; (genetic background: wild type) 0.6405 ± 0.0054.
NILVIVYELLLG [YOS1 C-terminal 12 aa]: the protein stability index amounted to 0.215 ± 0.023 under setting [1] and 0.203 ± 0.013 (genetic background: wild type).
For the sequence NINGTTAAVDVN [PAP1 C-terminal 12 aa], the protein stability index by setting is: under setting [1], 0.661 ± 0.0093; (genetic background: wild type) 0.658 ± 0.01.
For NKTNNKKKHGKK [CLU1 C-terminal 12 aa] the same measures were 0.698 ± 0.044 and 0.713 ± 0.024.
As for NLEFETEHNVTN [NDC80 C-terminal 12 aa], the protein stability index turned out to be 0.677 ± 0.012 under setting [1] and 0.708 ± 0.013 (genetic background: wild type).
The matching figures for NLELGGLNMDFL [PGD1 C-terminal 12 aa]: 0.7171 ± 0.0022 and 0.708 ± 0.047.
For the sequence NLLRFIVGVDVL [YDR426C C-terminal 12 aa], the protein stability index was found to be 0.639 ± 0.0092 under setting [1] and 0.638 ± 0.0082 (genetic background: wild type).
The matching figures for NNDDSANDLIDR [CCH1 C-terminal 12 aa]: 0.649 ± 0.013 and 0.681 ± 0.02.
For the sequence NNYNLWFRLSSS [ECL1 C-terminal 12 aa], the protein stability index is, setting by setting: under setting [1], 0.702 ± 0.027; (genetic background: wild type) 0.668 ± 0.055.
The matching figures for NPADYLLEFGSG [RTG3 C-terminal 12 aa]: 0.7103 ± 0.0023 and 0.72 ± 0.029.
For NPFEYENFINIE [YOR263C C-terminal 12 aa], the protein stability index runs as follows: under setting [1], 0.7418 ± 0.0062; (genetic background: wild type) 0.721 ± 0.052.
For NPVGVPNDDHHH [COX4 C-terminal 12 aa] the same measures were 0.724 ± 0.0031 and 0.668 ± 0.022.
For NQFSQPPSNVEF [SCD6 C-terminal 12 aa] the same measures were 0.684 ± 0.025 and 0.697 ± 0.019.
With NQYANNLNLIDM [YAP1801 C-terminal 12 aa], the protein stability index under setting [1] is 0.694 ± 0.026 and the protein stability index (genetic background: wild type) was 0.672 ± 0.029.
The matching figures for NSDRLSPMEIYN [SPO14 C-terminal 12 aa]: 0.7118 ± 0.007 and 0.6799 ± 0.0022.
The matching figures for NSGSAATDSPFN [STS1 C-terminal 12 aa]: 0.727 ± 0.013 and 0.674 ± 0.034.
For NSIDIGSRLSLM [PEX1 C-terminal 12 aa] the same measures were 0.704 ± 0.0078 and 0.68911 ± 4.9e-05.

These data come from the supplement of paper PMC10724198.
